Test results as given in publication PMC4231325 (Scientific Reports, 2014).

Target: the molecule itself
Experiment: AUC

B1: SYCE3 (purified recombinant protein) (natural protein, Mus musculus, UniProt B5KM66 1-88, looked up)
chain: MADSDPGERSYDNMLKMLSDLNKDLEKLLEEMEKISVQATWMAYDMVVMRTNPTLAESMRRLEDAFLNCKEEMEKNWQELLTETKRKQ
- stoichiometry N: 2
